From US20170158755A1 (PROTHENA BIOSCIENCES, published 2017)
Numbering of substitutions follows the chain as printed.

T1: human LAMA4 G domain (LG1-5) displayed on 293 cells (human, UniProt Q16363 830-1821)
T1 construct: the vector's tags and membrane anchor are not written here; also called LAMA4-displaying human 293 cells; full length
T1 sequence: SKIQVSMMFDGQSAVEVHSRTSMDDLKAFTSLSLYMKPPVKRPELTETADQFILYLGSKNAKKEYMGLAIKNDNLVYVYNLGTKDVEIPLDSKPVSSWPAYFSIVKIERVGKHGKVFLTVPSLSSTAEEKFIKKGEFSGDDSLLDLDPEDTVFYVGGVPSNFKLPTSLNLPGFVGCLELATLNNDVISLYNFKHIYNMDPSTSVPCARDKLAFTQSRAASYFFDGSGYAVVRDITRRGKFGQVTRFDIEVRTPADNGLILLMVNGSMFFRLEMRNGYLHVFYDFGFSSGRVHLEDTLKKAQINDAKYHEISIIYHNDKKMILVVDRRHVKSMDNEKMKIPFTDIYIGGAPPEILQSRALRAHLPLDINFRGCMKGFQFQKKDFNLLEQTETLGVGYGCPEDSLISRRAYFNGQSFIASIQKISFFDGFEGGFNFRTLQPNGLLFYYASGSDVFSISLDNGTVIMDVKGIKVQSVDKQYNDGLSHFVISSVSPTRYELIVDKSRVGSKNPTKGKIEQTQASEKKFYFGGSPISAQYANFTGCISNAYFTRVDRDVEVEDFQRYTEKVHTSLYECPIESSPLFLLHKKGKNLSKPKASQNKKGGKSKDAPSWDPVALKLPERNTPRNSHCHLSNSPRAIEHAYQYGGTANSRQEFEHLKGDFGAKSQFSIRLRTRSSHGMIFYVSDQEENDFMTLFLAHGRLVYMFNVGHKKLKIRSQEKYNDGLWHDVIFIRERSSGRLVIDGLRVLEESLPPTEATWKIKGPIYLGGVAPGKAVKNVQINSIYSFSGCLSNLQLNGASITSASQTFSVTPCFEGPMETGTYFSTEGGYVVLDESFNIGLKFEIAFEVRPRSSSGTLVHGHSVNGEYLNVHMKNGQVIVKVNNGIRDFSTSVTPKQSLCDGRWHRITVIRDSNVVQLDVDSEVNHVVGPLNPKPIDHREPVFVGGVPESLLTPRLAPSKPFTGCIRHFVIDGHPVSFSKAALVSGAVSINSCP

B1: humanized 19C12 antibody H2L3 (antibody, V domains shown)
VH: QVQLQQSGAELVKPGASVKVSCKASGYAFSTYWMNWVRQAPGQGLEWIGQIYPGDGDTNYNGKFKGRVTITADKSTSTAYMELSSLRSEDTAVYFCARSDGYYDYWGQGTTVTVSS
VL: NIVLTQSPASLAVSLGERATISCRASESVDSYGTSFMHWYQQKPGQPPKLLICLASSLESGVPARFSGSGSRTDFTLTIDPVEAEDAATYYCQQNNEDPPTFGAGTKLEIKR
notes: Intact humanized IgG (human Fc); also called VHv2/VLv3; Hu19C12 H2L3
B2: humanized 19C12 antibody H2L4 (antibody, V domains shown)
VH: B1 VH
VL: B1 VL with C53S, R72G, D80S
notes: Intact humanized IgG (human Fc); also called VHv2/VLv4
B3: humanized 19C12 antibody H3L6 (antibody, V domains shown)
VH: B1 VH with Q1E
VL: B1 VL with N1D, C53S, R72G, D80S
notes: Intact humanized IgG (human Fc); also called VHv3/VLv6
B4: humanized 19C12 antibody H2L6 (antibody, V domains shown)
VH: B1 VH
VL: B1 VL with N1D, C53S, R72G, D80S
notes: Intact humanized IgG (human Fc); also called VHv2/VLv6

Target: T2, recombinant laminin 411 (human, UniProt P07942 22-1786; P11047 34-1609, limits assumed)
T2 construct: also called LAMA4 in complex with its gamma1 and beta1 chains
T2 sequence (chain, as listed by the source limits assumed, chain 1 of 3): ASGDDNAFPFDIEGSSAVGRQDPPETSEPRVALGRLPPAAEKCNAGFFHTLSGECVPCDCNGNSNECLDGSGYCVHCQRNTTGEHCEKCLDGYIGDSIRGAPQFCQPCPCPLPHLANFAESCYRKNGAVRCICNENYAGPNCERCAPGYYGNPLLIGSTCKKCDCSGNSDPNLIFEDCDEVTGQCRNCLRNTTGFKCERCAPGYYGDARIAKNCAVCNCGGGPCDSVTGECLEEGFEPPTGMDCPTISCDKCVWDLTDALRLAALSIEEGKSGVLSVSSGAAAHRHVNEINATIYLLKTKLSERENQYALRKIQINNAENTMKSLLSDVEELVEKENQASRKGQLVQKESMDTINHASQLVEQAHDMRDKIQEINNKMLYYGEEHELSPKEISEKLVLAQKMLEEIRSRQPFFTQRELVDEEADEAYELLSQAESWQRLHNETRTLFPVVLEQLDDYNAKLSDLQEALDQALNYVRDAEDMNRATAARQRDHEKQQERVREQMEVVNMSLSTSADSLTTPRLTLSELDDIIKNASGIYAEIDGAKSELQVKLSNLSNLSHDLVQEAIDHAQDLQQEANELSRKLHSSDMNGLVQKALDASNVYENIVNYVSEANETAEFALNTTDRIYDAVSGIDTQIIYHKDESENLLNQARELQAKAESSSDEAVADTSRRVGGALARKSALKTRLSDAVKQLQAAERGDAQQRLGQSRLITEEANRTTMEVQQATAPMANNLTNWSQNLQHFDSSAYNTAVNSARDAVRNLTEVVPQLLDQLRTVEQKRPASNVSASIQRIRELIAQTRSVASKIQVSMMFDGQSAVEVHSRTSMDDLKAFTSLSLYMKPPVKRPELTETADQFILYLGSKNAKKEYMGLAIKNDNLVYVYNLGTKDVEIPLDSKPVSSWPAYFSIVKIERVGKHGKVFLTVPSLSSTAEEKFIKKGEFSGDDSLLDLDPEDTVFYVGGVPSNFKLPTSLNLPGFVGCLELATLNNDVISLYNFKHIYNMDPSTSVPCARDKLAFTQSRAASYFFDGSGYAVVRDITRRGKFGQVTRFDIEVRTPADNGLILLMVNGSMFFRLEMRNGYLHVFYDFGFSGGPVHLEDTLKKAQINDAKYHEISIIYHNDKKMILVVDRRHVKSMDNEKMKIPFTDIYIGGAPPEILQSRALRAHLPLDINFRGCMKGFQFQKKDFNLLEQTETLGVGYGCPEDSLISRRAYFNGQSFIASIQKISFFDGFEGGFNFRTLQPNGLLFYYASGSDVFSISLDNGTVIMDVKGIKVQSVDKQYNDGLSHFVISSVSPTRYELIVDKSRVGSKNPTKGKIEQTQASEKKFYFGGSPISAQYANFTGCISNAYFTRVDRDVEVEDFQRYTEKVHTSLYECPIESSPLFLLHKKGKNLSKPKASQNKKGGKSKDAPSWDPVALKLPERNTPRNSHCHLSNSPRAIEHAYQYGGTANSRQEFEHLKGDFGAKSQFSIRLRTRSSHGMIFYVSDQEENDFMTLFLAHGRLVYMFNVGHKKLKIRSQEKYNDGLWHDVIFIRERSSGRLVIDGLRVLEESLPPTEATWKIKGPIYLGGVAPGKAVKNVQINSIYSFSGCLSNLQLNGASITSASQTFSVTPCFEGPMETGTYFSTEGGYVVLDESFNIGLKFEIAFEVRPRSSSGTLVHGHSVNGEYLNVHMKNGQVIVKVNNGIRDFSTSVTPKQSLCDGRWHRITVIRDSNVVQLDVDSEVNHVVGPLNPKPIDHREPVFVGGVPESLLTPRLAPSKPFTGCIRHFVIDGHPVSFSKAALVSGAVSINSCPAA
T2 sequence (P07942 22-1786 limits assumed, chain 2 of 3): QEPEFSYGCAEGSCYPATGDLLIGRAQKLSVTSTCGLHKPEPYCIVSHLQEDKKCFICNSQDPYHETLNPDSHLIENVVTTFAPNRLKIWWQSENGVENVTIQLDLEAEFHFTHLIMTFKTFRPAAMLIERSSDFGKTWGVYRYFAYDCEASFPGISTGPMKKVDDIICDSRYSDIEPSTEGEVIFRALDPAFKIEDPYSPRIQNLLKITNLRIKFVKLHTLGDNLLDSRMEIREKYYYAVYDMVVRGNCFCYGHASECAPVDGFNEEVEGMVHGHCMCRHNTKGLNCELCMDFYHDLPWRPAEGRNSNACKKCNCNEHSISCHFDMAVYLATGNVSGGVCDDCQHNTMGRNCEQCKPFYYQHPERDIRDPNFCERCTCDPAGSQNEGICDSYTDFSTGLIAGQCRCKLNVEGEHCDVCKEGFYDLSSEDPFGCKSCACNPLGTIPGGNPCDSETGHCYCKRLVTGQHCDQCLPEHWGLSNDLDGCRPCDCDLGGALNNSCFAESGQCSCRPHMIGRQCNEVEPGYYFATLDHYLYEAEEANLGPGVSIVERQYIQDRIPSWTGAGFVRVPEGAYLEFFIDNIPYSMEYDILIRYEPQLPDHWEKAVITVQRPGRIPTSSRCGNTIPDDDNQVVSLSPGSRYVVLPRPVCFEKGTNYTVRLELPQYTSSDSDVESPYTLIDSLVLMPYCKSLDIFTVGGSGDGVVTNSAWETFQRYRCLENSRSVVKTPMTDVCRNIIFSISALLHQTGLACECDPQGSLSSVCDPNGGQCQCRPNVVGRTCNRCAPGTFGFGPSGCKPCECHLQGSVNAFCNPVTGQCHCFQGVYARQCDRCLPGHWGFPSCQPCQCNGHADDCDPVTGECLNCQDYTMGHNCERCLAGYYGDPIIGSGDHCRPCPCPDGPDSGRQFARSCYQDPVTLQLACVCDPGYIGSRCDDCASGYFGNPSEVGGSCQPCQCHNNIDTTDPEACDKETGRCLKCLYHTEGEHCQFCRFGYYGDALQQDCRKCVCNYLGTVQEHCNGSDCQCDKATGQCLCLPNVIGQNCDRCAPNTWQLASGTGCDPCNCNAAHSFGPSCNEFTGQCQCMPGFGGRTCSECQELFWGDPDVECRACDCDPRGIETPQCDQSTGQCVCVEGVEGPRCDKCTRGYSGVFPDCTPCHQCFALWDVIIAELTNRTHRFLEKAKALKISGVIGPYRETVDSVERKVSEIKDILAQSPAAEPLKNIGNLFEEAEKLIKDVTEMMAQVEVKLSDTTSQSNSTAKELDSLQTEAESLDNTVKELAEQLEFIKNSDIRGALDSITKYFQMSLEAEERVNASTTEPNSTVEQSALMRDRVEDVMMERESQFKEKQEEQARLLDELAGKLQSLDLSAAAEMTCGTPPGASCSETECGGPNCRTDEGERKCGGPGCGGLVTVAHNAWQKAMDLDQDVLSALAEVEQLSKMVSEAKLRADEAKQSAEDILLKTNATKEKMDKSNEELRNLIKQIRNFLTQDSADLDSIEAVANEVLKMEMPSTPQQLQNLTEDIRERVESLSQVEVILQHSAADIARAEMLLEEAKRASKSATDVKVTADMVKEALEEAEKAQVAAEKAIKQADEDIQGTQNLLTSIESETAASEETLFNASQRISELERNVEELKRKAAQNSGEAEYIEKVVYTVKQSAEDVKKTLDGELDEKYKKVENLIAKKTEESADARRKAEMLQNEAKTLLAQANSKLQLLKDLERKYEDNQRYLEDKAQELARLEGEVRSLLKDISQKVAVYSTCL
T2 sequence (P11047 34-1609 limits assumed, chain 3 of 3): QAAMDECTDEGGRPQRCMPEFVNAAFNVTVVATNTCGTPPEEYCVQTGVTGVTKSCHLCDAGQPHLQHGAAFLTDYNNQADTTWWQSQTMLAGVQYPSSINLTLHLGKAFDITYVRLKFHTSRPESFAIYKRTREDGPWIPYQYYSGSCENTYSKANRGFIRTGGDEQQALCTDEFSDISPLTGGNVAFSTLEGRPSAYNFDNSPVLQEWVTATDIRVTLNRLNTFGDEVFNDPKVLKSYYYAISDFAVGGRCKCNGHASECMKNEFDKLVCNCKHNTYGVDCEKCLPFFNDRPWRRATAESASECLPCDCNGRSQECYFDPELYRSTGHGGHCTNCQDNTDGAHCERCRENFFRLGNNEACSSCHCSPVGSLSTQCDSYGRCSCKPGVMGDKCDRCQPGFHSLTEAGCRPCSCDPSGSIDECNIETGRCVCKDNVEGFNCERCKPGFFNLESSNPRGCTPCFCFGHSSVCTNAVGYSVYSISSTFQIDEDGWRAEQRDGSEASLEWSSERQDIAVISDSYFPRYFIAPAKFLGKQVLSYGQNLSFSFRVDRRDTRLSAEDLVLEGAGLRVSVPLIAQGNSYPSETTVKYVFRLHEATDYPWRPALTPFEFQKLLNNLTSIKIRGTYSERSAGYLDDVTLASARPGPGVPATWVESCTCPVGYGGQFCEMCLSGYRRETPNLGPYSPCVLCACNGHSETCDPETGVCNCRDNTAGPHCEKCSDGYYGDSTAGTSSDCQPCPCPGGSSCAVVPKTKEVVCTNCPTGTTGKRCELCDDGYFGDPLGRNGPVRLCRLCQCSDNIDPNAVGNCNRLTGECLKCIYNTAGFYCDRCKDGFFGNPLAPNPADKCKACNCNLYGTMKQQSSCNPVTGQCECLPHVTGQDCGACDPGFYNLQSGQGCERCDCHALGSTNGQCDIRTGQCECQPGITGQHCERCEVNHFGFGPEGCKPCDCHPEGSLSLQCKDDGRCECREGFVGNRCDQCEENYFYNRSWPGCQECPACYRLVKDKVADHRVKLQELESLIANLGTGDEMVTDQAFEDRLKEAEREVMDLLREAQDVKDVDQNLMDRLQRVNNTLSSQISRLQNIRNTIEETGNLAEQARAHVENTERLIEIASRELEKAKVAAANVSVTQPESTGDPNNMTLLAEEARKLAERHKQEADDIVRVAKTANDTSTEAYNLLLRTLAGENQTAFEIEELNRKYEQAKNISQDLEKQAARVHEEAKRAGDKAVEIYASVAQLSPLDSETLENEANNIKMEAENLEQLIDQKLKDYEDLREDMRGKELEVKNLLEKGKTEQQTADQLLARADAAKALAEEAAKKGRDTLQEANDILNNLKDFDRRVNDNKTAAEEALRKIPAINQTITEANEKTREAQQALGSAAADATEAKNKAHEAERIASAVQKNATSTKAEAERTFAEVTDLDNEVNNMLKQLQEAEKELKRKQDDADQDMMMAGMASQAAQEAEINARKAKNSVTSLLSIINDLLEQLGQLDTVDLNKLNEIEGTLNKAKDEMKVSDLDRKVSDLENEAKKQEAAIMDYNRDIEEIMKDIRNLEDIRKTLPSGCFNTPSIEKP
Test: flow cytometric blocking assay; antibody pre-incubated with 650-labeled laminin 411; blocked partner: human MCAM on CHO cells; MFI
Method: (§1) The 19C12 variants chimeric 19C12, H2L3, H2L4, H2L6, H3L6, and isotype control were tested for their ability to block the binding of LAMA4 to its ligand MCAM (FIG. 15) and to bind LAMA4-displaying cells (FIG. 16). To test LAMA4 binding capacity, serially diluted antibodies were pre-incubated with LAMA4-displaying human 293 cells, followed by anti-human-650 secondary antibody incubation. […] Fluorescent signal was assessed via flow cytometric analyses and plotted as mean fluorescence intensity (MFI). All 19C12 variants retained their MCAM blocking and LAMA4 binding activity when compared with chimeric 19C12.
Following two washes with FACS buffer (1% FBS in PBS), cells were resuspended with 650-conjugated anti-pan-laminin antibody (1:1000; Novus Biologicals) and incubated for 20 min at 4° C., and washed again. Cells were analyzed for pan-laminin reactivity by flow cytometry using standard procedures.

| binding result | Binder |
| --- | --- |
| binds | B1 |
| binds | B2 |
| binds | B3 |
| binds | B4 |

Target: T3, mouse LAMA4 in mouse tissue (mouse, UniProt P97927 25-1816)
T3 construct: Native protein in tissue sections, there part of laminin trimers; also called LAMA4-positive mouse tissue; LAMA4-positive mouse brain vasculature
Test: staining of WT versus LAMA4.KO mouse brain cryosections, anti-human-594 secondary
Description: The specific binding between the 19C12 humanized variants (19C12 chi, H2L3, H2L4, H2L6, H3L6 and isotype control) and LAMA4 was further tested by assessing the variants' ability to stain wild-type vs. LAMA4.KO mouse brains. Humanized monoclonal antibodies against LAMA4 were generated as described in the Materials and Methods. Perfused and fresh frozen WT and LAMA4.KO mouse brains were cryosectioned, acetone-fixed, and stained with LAMA4 primary antibody followed by anti-human-594 secondary antibodies.

| binding result | Binder |
| --- | --- |
| binds | B1 |
| binds | B2 |
| binds | B3 |
| binds | B4 |

Target: T1, human LAMA4 G domain (LG1-5) displayed …
Test: flow cytometry on LAMA4-displaying 293 cells, anti-human-650 secondary antibody; MFI
Method: as §1

| binding result | Binder |
| --- | --- |
| binds | B1 |
| binds | B2 |
| binds | B3 |
| binds | B4 |
